# Assay results as given in the supplement of paper PMC7125110.
# ± gives the standard error. This sample holds only a part of the variants without activity.
# B1: glmS ribozyme (parent)
# chain: AUAAAAGCGCCAGAACUACAGAAAUGUAGUUGACGAGGAGGAGGUUUAUCGAAUUUUCGGCGGAUGCCUCCAAA
# Columns and labels:
# Settings in all cases: with glucosamine-6-phosphate
# glucosamine-6-phosphate [1] = variants of: B1; assay: self-cleavage kobs at 160 uM GlcN6P; higher = faster cleavage; RNA array
# In short: (§1)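 Barcoded ribozyme variants, transcribed in situ by E. coli RNA polymerase on sequenced MiSeq chips, were followed via a hybridised Cy3 probe at 37 °C. Glucosamine-6-phosphate ranged from 40 μM to 10 mM in HEPES/KCl/Mg(OAc)2 buffer. kobs came from decay fits to per-tile medians, and kcat and KM from weighted Michaelis–Menten fits.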
# glucosamine-6-phosphate [2] = variants of: B1; assay: self-cleavage kobs at 640 uM GlcN6P; higher = faster cleavage; RNA array
# In short: as §1
# glucosamine-6-phosphate [3] = variants of: B1; assay: self-cleavage kobs at 2500 uM GlcN6P; higher = faster cleavage; RNA array
# In short: as §1
# glucosamine-6-phosphate [4] = variants of: B1; assay: self-cleavage kobs at 10000 uM GlcN6P; higher = faster cleavage; RNA array
# In short: as §1
Variant,self-cleavage kobs at 160 uM GlcN6P (glucosamine-6-phosphate [1]) [s⁻¹],self-cleavage kobs at 640 uM GlcN6P (glucosamine-6-phosphate [2]) [s⁻¹],self-cleavage kobs at 2500 uM GlcN6P (glucosamine-6-phosphate [3]) [s⁻¹],self-cleavage kobs at 10000 uM GlcN6P (glucosamine-6-phosphate [4]) [s⁻¹]
AUAAAAGCGCCAGAACUACAGAAAUGUACUUGACGGGGAGUAGGUUUAUCGAAUUUUCGGCGGAUGCCUCCAAA,< 1e-05,< 1e-05,< 1e-05,–
AUAAAAGCGCCAGAACUACAGAAAUGUAGUGGACCAGGAGGAGGUAUAUCGAAUUUUCGGCGGAUGCCUGCAAA,< 1e-05,< 1e-05,< 1e-05,–
AUAAAAGCGCCAGACCUACAGAAAUGUAGUUGUCGCGGAGGAGGUUUCUCGAAUUUUCGGCGGAUGCCUCCAAA,< 1e-05,< 1e-05,< 1e-05,–
AUAAAAGCGCCAGAACUACAGAAAUGUAGUUGACGAGGAUGAGGUUUAUCGAAUUUUCGGCGGAUGGCUCCAAA,< 1e-05,< 1e-05,–,–
AUAAAAGCGCCAGAGCUACAGAAAUGUAGUUGACGAGGAGGAGGUUUAUCGAAUAUUCGGCUCAUGCCUCCAAA,< 1e-05,< 1e-05,–,–
AUAAAAGCGCCAGAAUUACAGAAAUGUAGUUGACGAGGAGCACGUUUUUCGAAUUUCCGGCGGAUGCCUCCAAA,< 1e-05,–,< 1e-05,–
AUAAAAGCGCCAGAACUACAGAAAUGUAGUUGACGAGAAGGAGGUUUAUCGAAUUUUCGGCGGGUGCCUCCAAA,< 1e-05,–,–,–
AUAAAAGCGUCAGAACUACAGAAAUGUAGUUGACGAGGAGGAGGUUUAUCAAAUCUUCGGCGGAUGCCUCCAAA,< 1e-05,–,< 1e-05,–
AUAAAAGCGCCGGAACUACAGAAAUGUAGUUGACGAGGAGGUGGUUUAUCGAAUUUUCUGCGCAUGCCUCUAAA,< 1e-05,< 1e-05,–,–
AUAAAGGCGCCAGAACUACAGAAAUGUAGGUGAGGAGGAGGAGGUUUAUCGAAUUUUCGGCGGAUGCCUCCAAA,< 1e-05,–,–,–
AUAAAAGCGCCAAAACUACAGAAAUGUAGUUGACGAGGGGGAGGUUUAUCGAAUUUUCGGCGGAUGCAUCCAAA,< 1e-05,–,–,–
AUAAAAGCGCCAGAACUACAGAAAUGUAGUUGACGAGGUCGAGGUCUAUCGAAUUUUCGGCGGAUGCCUCCAAA,5.92e-05 ± 1.4e-05,0.000338 ± 5.3e-05,0.000277 ± 7.4e-05,–
AUAAAAGCGCCAGAACUACAGAAAUGUAGUUUAGGAGGAGGAAGUUUAUCGAAUUUUCGGCGGAUGCCUCCAAA,< 1e-05,< 1e-05,< 1e-05,–
AUAAAAGCGCGAUAACUACAGAAAUGUAGUUGACGAGGAGGAGGCUUAUCGAAUUUUCGGCGGAUGCCUCCAAA,< 1e-05,–,–,–
AUAAAAGCGCCAAAACUACAGAAAUGUAGUUGACGAGGAGGUGGUUUAUCGAAUUUUCGGCGGAUGCCUCCAAA,< 1e-05,< 1e-05,–,–
AUAAAAGCGCCAGAACUACAGAAAUGUAGUUGACGAGGAGCAGGUUUAUCGCAUUUUCGGCGGAUGCUUCCAAA,< 1e-05,–,–,–
AUAAAAGCGCCAGAACUACAGAAAUGUAGUUGACGAGGAGGAGGUUUAUGGAUUUUUCGGCGGAUGCCUCCAAA,0.00155 ± 0.00063,–,–,–

Variant,self-cleavage kobs at 160 uM GlcN6P (glucosamine-6-phosphate [1]) [s⁻¹],self-cleavage kobs at 640 uM GlcN6P (glucosamine-6-phosphate [2]) [s⁻¹],self-cleavage kobs at 2500 uM GlcN6P (glucosamine-6-phosphate [3]) [s⁻¹],self-cleavage kobs at 10000 uM GlcN6P (glucosamine-6-phosphate [4]) [s⁻¹]
AUAAAAGCGCCAGAUCUACAGAAAUGUAGUUGGCGAGGAGGAGGUUGAUCGAAGUUUCGGCGGAUGUCUCAAAA,0.000235 ± 8.9e-05,0.000303 ± 8.2e-05,–,–
AUAAAAACGCCAGAACUACAGAAAUGUAGUUGACGAGUAGGAGCUUUAACGAUUUCUCGGCGGAUGCCUCCAAA,< 1e-05,–,–,–
AUAAAAGUGCCAGAACUACAGAAAUGUAGUUGACGAGGAGGAGGUUUAUCGAAUUCUCGGCGGAUGCCUCCAAA,< 1e-05,< 1e-05,< 1e-05,< 1e-05
AUAAAAGCGCCAGAUCUACAGAAAUGUAGUUGACGAGGAUGAGGUUUCUCGAAUUUUCGGCGGAUGCCUCCAAA,< 1e-05,< 1e-05,–,–
AUAAAAGCGACUGAACUACAGAAAUGUAGUUGACGAGGAGGAGGUAUAUCGAAUUUUCGGCGGAUGCCUCCAAA,< 1e-05,< 1e-05,–,–
AUAAAAGCGCCCGAACUACAGAAAUGUAGUUGACGAGGAGGAGGUUUAUCUAAUUUUGGGAGGAUGCCUCCAAA,< 1e-05,–,–,–
AUAAAAGAGCCCGAACUACAGAAAUGUAGUUGACGAGGAGGAGGUUUAUCGAAUUUUCGGCGGAUGCCUCCAAA,< 1e-05,< 1e-05,< 1e-05,< 1e-05
AUAAAAGCGCCAGCACUACAGAAAUGUAGUUGACAAGGAGGAGGUUUAUCGAAUUUUCGGCGGAUGCCUCCAAA,< 1e-05,< 1e-05,< 1e-05,< 1e-05
AUAAAAGCGCGAGACCUACAGAAAUGUAGUUGCGGAGGAGGAGGUUUAUCGAAUCUUCGGCGGAUGCCUCCAAA,< 1e-05,< 1e-05,–,–
AUAAACGCGCCAGAUCUACAGAAAUGUAGUUGACGAGGAGGAGGUUUAUCGAAUUUUCGGCGGAUGCCUCCAAA,< 1e-05,–,–,–
AUAAAAUCGCCAGCACUACAGAAAUGUAGUUGACGAGGAGGAGGUUUAUCGAAUUUUCGGCGGAUUCCUCCAAA,< 1e-05,–,< 1e-05,–
AUAAAAGAGCCAGAACUACAGAAAUGUAGUUGACCAGGAGGAGGUUUAUCGAAUUUUCGGCUGAUGCCUCCAAA,< 1e-05,< 1e-05,< 1e-05,–
AUAAAAGCGCCAGAACUACAGAAAUGUAGUUGACGAGGCGGAGGUUUAUCGAAUUUUCGGUGGAUGCCUCUAAA,< 1e-05,< 1e-05,< 1e-05,–
AUAAAAGGGCCAGAACUACAUAAAUGUAGUUGAAGAGGAGGAGGUUUAUCGAAUUUUCGGCGGGUGCCUCCAAA,< 1e-05,< 1e-05,< 1e-05,–
AUAAAAGCGCCCGAACUACAGAAAUGUAGUUGACGAGGAGGAGGUUUAUCGAAUUCUCGGCGGAUGCCUCCAAA,6.31e-05 ± 1.4e-05,0.000455 ± 8.2e-05,0.00111 ± 0.00017,0.00253 ± 0.00077
AUAAAAGCACCAGAACUACAGAAAUGUAGUUGACGAGGAGGAGGUUUAUUUUAUUUUCGGCGGAUGCCUCCAAA,< 1e-05,–,–,–
AUAAAAGCGCCAGAACUACAGAAAUGUAGUUGACGAGGAGGAGGUUUAUCGAAAUUUCAGCGGAUGCCUCAAAA,< 1e-05,< 1e-05,–,–
